The values below come from patent publication US20210393776A1 (FABION PHARMACEUTICALS, published 2021).

Like-named read-outs stand apart in the source and are kept apart here.

The target in experiment [1] is T1, recombinant cyno CD3epsilon/delta Fc(K-H) heterodimer (cynomolgus).
T1 construct: also called cynomolgus CD3epsilon/delta; recombinant cyno CD3epsilon/delta heterodimeric Fc protein; copies: 1 + 1
As to the kind of experiment: ELISA, immobilised antigen, biotinylated protein, streptavidin-HRP, ABTS, OD405.

Experiment [2] concerns the target T2, human CD3epsilonAA1-27.Fc (human).
T2 construct: also called recombinant human CD3epsilon N-terminal peptide (aa1-27.Fc fusion); CD3epsilon N-terminal amino acid 1-27 peptide Fc fusion
The experiment is described as above.

Experiment [3] has as its target T3, full length human EpCAM on CHO cells (human, UniProt P16422 24-314).
T3 construct: CHO cells stably expressing full length human EpCAM; also called hu-EpCAM-FL; human EpCAM-FL
T3 sequence: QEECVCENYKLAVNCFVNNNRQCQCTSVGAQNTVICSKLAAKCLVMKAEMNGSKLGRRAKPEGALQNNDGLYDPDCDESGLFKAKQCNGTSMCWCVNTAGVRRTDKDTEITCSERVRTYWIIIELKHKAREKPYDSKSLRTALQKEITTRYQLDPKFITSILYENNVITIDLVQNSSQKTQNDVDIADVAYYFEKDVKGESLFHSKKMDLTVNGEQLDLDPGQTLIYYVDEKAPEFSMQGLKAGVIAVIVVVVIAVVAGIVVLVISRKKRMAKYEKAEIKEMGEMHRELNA
Briefly: flow cytometry on CHO cells stably expressing full length human EpCAM, PE detection.

Experiment [4] addresses T4, human CD3 on cells (Jurkat cells; T cells in human PBMCs) (human, UniProt P07766 23-207).
T4 construct: whole, on cells; the other chains of the complex are present on the cells; also called CD3 on Jurkat cells; CD3 on T cells in PBMC preparation
As to the kind of experiment: flow cytometry on Jurkat cells, biotinylated protein, streptavidin-PE. Background: A flow cytometer gives signals particle by particle.

In experiment [5] the target is T1, recombinant cyno CD3epsilon/delta …. As to the kind of experiment: ELISA, immobilised antigen, biotinylated protein, streptavidin-HRP, ABTS, OD405. This is another data set of the same source. (An ELISA detects its analyte on a solid surface through an enzyme-linked reagent.)
Experiment [6] addresses T2, human CD3epsilonAA1-27.Fc. The description is as above. The source holds these as a separate data set.
Experiment [7] concerns the target T3, full length human EpCAM on CHO cells. As to the kind of experiment: flow cytometry on CHO cells stably expressing full length human EpCAM, PE detection. This is another data set of the same source.

B1: EpCAM2.2-(L)-hu-1F3.1 Fab (bispecific antibody)
heavy chain Fd (VH-CH1), unfused: EVQLVESGGGLVQPGGSLRLSCAASGFTFSTYAMNWVRQAPGKGLEWVSRIRSKYNNYATYYADSVKDRFTISRDDSKNTLYLQMNSLRAEDTAVYYCARHGNFGNSYVSWFAYWGQGTMVTVSSASTKGPSVFPLAPCSRSTSESTAALGCLVKDYFPEPVTVSWNSGALTSGVHTFPAVLQSSGLYSLSSVVTVPSSNFGTQTYTCNVDHKPSNTKVDKTVGGGGSHHHHHHH
light chain with anti-EpCAM scFv EpCAM2.2 at the N-terminus: QVQLQESGPGLVKPSETLTLTCSVSGGSISGYYWSWIRQPPGMGLEWIGSVHHSGSTSYNPSLKSRVTISVDTSKNQFSLKLNSVTAADTAVYYCARYRGSGLDYWGQGTLVTVSSGGGGSGGGGSGGGGSQSVLTQPPSVSAAPGQKVTISCSGDSSNIGKNYVSWYQQLPGTAPKLLIYENNERPSGVPDRFSGSKSGTSATLGITGLQTGDEADYYCAAWDTSLSARVFGGGTKVTVLGRAQAVVTQEPSLTVSPGGTVTLTCRSSTGAVTTSNYANWVQQKPGQAPRGLIGGTNKRAPGTPARFSGSLLGGKAALTLSGVQPEDEAEYYCALWYSNLWVFGGGTKLTVLGQPKAAPSVTLFPPSSEELQANKATLVCLISDFYPGAVTVAWKADSSPVKAGVETTTPSKQSNNKYAASSYLSLTPEQWKSHRSYSCQVTHEGSTVEKTVAPTECS
notes: member of groups m21 and m31; also called EpCAM2.2-(L)-hu-1F3 Fab
Turning to B1, the binding result in experiment [1] and in experiment [3] was “binds” throughout. Besides, the EC50 (read off the curve) – broadly, the midpoint of the concentration-response curve – in experiment [2] was around 2 nM.

B2: EpCAM2.2-(H)-hu-1F3.1 Fab (bispecific antibody)
heavy chain Fd with anti-EpCAM scFv EpCAM2.2 at the N-terminus: QVQLQESGPGLVKPSETLTLTCSVSGGSISGYYWSWIRQPPGMGLEWIGSVHHSGSTSYNPSLKSRVTISVDTSKNQFSLKLNSVTAADTAVYYCARYRGSGLDYWGQGTLVTVSSGGGGSGGGGSGGGGSQSVLTQPPSVSAAPGQKVTISCSGDSSNIGKNYVSWYQQLPGTAPKLLIYENNERPSGVPDRFSGSKSGTSATLGITGLQTGDEADYYCAAWDTSLSARVFGGGTKVTVLGRAEVQLVESGGGLVQPGGSLRLSCAASGFTFSTYAMNWVRQAPGKGLEWVSRIRSKYNNYATYYADSVKDRFTISRDDSKNTLYLQMNSLRAEDTAVYYCARHGNFGNSYVSWFAYWGQGTMVTVSSASTKGPSVFPLAPCSRSTSESTAALGCLVKDYFPEPVTVSWNSGALTSGVHTFPAVLQSSGLYSLSSVVTVPSSNFGTQTYTCNVDHKPSNTKVDKTVGGGGSHHHHHHH
light chain, unfused: QAVVTQEPSLTVSPGGTVTLTCRSSTGAVTTSNYANWVQQKPGQAPRGLIGGTNKRAPGTPARFSGSLLGGKAALTLSGVQPEDEAEYYCALWYSNLWVFGGGTKLTVLGQPKAAPSVTLFPPSSEELQANKATLVCLISDFYPGAVTVAWKADSSPVKAGVETTTPSKQSNNKYAASSYLSLTPEQWKSHRSYSCQVTHEGSTVEKTVAPTECS
notes: member of groups m21 and m31
With B2, the “EC50 (read off the curve)” value in experiment [1] was around 2 nM. Moreover, the binding result in experiment [3] is “binds”.

B3: EpCAM2.2-(H+L)-hu-1F3.1 MSFP (bispecific antibody)
heavy: B2 heavy chain Fd with anti-EpCAM scFv EpCAM2.2 at the N-terminus
light: B1 light chain with anti-EpCAM scFv EpCAM2.2 at the N-terminus
notes: (H + L) format has a GlyArgAla linker on both chains; His tag at the C-terminus of the Fd; also called double fusion of EpCAM2.2 scFv to both the HC and LC of hu-1F3.1 Fab
B3: the half-maximal effective concentration (EC50 (read off the curve)) in experiment [1] and in experiment [2] was around 3 nM each time.

B4: anti EpCAM scFv fusion to the LC alone of OKT3 Fab (bispecific antibody)
heavy: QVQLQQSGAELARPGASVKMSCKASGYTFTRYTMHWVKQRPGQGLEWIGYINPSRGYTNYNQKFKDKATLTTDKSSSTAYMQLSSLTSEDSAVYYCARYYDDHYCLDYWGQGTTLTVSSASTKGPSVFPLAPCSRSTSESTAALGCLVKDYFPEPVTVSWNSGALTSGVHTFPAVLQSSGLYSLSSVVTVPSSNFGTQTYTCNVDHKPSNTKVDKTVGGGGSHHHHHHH
light: QVQLQQSGGGLVQPGGSLRLSCAASGFTFSNYWMSWVRQAPGKGLEWVANIKQDGSEKFYVDSVKGRFTISRDNAKNSLYLQMNSLRAEDMAVYYCARVGGAWELGYWGQGTLVTVSAGGGGSGGGGSGGGGSGAQSVLTQPPSVSGAPGQRVTISCTGSSSNIGSYYGVHWYQQIPGTAPKLLIYSDTNRPSGVPDRFSGSKSGTSASLAITGLQAEDEADYYCQSYDSSLSGRVFGGGTKVTVLGRAQIVLTQSPAIMSASPGEKVTMTCSASSSVSYMNWYQQKSGTSPKRWIYDTSKLASGVPAHFRGSGSGTSYSLTISGMEAEDAATYYCQQWSSNPFTFGSGTKLEINRTVAAPSVFIFPPSDEQLKSGTASVVCLLNNFYPREAKVQWKVDNALQSGNSQESVTEQDSKDSTYSLSSTLTLSKADYEKHKVYACEVTHQGLSSPVTKSFNRGEC
notes: also called EpCAM1.1×OKT3 Fab fusion, LC only
As to B4, the binding result in experiment [4] is on record as “no binding”; in experiment [5], “no binding (tested: about 80 nM (last point; axis to 100 nM))”; in experiment [6], “no binding (tested: about 80 nM (last point; axis to 100 nM))”; in experiment [7], “binds”.

B5: anti EpCAM scFv fusion to both HC and LC of OKT3 Fab (bispecific antibody)
heavy: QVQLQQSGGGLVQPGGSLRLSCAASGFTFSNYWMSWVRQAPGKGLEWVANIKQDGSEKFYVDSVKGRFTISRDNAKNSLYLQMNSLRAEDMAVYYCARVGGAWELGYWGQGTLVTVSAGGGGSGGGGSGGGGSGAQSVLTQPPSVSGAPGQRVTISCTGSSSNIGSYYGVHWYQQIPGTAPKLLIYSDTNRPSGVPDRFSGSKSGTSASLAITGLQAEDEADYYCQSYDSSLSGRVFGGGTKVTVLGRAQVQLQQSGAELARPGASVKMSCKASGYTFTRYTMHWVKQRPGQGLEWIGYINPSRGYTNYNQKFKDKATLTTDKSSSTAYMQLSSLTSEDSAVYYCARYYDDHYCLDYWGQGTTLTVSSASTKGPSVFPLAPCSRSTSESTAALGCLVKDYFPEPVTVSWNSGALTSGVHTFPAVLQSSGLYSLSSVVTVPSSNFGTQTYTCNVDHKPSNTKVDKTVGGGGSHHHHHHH
light: B4 light
notes: also called EpCAM1.1×OKT3 Fab fusion, HC and LC
B5: the binding result is listed as “no binding” in experiment [4], “no binding (tested: about 80 nM (last point; axis to 100 nM))” in experiment [5], “no binding (tested: about 80 nM (last point; axis to 100 nM))” in experiment [6] and “binds” in experiment [7].
